Results published in doi:10.1101/701250 (bioRxiv, 2019).
Read-outs that look alike come from different tables or passages of the source.

B1: homodimeric KIF3A-SNAP labelled with Alexa647 or TMR (natural protein, Mus musculus, UniProt P28741 1-701, looked up)
chain: MPINKSEKPESCDNVKVVVRCRPLNEREKSMCYRQAVSVDEMRGTITVHKTDSSNEPPKTFTFDTVFGPESKQLDVYNLTARPIIDSVLEGYNGTIFAYGQTGTGKTFTMEGVRAVPGLRGVIPNSFAHIFGHIAKAEGDTRFLVRVSYLEIYNEEVRDLLGKDQTQRLEVKERPDVGVYIKDLSAYVVNNADDMDRIMTLGHKNRSVGATNMNEHSSRSHAIFTITIECSEKGVDGNMHVRMGKLHLVDLAGSERQAKTGATGQRLKEATKINLSLSTLGNVISALVDGKSTHVPYRNSKLTRLLQDSLGGNSKTMMCANIGPADYNYDETISTLRYANRAKNIKNKARINEDPKDALLRQFQKEIEELKKKLEEGEEVSGSDISGSEEDDEEGELGEDGEKKKKRRDQAGKKKVSPDKMVEMQAKIDEERKALETKLDMEEEERNKARAELERREKDLLKAQQEHQSLLEKLSALEKKVIVGGVDLLAKAEEQEKLLEESNMELEERRRRAEQLRKELEEKEQERLDIEEKYTSLQEEAQGKTKKLKKVWTMLMAAKSEMADLQQEHQREIEGLLENIRQLSRELRLQMLIIDNFIPQDYQEMIENYVHWNEDIGEWQLKCVAYTGNNMRKQTPVPDKKERDPFEVDLSHVYLAYTEESLRQSLMKLERPRTSKGKARPKMGRRKRSAKPETVIDSLLQ
modifications: Alexa647 or TMR on the SNAP tag
B2: KIF3A purified from E. coli (natural protein, Mus musculus, UniProt P28741 1-701, looked up)
chain: B1 chain
B3: KAP3 (separately purified) (natural protein, Mus musculus, UniProt P70188-1 1-793, looked up)
chain: MQGEDARYLKRKVKGGNIDVHPSEKALIVQYEVEATILGEMGDPMLGERKECQKIIRLKSLNANTDITSLARKVVEECKLIHPSKLSEVEQLLYYLQNRRDSLPGKEKKEKSSKPKDPPPFEGMEIDEVANINDMDEYIELLYEDIPDKVRGSALILQLARNPDNLEELLLNETALGALARVLREDWKQSVELATNIIYIFFCFSSFSHFHGLITHYKIGALCMNIIDHELKRHELWQEELSKKKKAVDEDLENQTLRKDYDKTFKKYQGLVVKQEQLLRVALYLLLNLAEDTRTELKMRNKNIVHMLVKALDRDNFELLILVVSFLKKLSIFMENKNDMVEMDIVEKLVKMIPCEHEDLLNITLRLLLNLSFDTGLRNKMVQVGLLPKLTALLGNENYKQIAMCVLYHISMDDRFKSMFAYTDCIPQLMKMLFECSDERIDLELISFCINLAANKRNVQLICEGNGLKMLMKRALKLKDPLLMKMIRNISQHDGPTKNLFIDYVGDLAAQISSDEEEEFVIECLGTLANLTIPDLDWELVLKEYKLVPFLKDKLKPGAAEDDLVLEVVIMIGTVSMDDSCAALLAKSGIIPALIELLNAQQEDDEFVCQIIYVFYQMVFHQATRDVIIKETQAPAYLIDLMHDKNNEIRKVCDNTLDIIAEYDEEWAKKIQSEKFRWHNSQWLEMVESRQLDESEQYLYGDDRIEPYIHEGDILERPDLFYNSDGLITSEGAISPDFFNDFHLQNGDVVGQHAFPGSLGMDGFGQPLGILGRPATAYGFRPDEPYYYSFGSR

Experiments:
[1] = target: the molecule itself
SEC-MALS = target: the molecule itself; test: SEC-MALS
full-length APC-GFP = full-length APC-GFP (Mus musculus, UniProt Q61315 1-2845); test: MST
full-length APC-GFP, sequence (Q61315 whole entry): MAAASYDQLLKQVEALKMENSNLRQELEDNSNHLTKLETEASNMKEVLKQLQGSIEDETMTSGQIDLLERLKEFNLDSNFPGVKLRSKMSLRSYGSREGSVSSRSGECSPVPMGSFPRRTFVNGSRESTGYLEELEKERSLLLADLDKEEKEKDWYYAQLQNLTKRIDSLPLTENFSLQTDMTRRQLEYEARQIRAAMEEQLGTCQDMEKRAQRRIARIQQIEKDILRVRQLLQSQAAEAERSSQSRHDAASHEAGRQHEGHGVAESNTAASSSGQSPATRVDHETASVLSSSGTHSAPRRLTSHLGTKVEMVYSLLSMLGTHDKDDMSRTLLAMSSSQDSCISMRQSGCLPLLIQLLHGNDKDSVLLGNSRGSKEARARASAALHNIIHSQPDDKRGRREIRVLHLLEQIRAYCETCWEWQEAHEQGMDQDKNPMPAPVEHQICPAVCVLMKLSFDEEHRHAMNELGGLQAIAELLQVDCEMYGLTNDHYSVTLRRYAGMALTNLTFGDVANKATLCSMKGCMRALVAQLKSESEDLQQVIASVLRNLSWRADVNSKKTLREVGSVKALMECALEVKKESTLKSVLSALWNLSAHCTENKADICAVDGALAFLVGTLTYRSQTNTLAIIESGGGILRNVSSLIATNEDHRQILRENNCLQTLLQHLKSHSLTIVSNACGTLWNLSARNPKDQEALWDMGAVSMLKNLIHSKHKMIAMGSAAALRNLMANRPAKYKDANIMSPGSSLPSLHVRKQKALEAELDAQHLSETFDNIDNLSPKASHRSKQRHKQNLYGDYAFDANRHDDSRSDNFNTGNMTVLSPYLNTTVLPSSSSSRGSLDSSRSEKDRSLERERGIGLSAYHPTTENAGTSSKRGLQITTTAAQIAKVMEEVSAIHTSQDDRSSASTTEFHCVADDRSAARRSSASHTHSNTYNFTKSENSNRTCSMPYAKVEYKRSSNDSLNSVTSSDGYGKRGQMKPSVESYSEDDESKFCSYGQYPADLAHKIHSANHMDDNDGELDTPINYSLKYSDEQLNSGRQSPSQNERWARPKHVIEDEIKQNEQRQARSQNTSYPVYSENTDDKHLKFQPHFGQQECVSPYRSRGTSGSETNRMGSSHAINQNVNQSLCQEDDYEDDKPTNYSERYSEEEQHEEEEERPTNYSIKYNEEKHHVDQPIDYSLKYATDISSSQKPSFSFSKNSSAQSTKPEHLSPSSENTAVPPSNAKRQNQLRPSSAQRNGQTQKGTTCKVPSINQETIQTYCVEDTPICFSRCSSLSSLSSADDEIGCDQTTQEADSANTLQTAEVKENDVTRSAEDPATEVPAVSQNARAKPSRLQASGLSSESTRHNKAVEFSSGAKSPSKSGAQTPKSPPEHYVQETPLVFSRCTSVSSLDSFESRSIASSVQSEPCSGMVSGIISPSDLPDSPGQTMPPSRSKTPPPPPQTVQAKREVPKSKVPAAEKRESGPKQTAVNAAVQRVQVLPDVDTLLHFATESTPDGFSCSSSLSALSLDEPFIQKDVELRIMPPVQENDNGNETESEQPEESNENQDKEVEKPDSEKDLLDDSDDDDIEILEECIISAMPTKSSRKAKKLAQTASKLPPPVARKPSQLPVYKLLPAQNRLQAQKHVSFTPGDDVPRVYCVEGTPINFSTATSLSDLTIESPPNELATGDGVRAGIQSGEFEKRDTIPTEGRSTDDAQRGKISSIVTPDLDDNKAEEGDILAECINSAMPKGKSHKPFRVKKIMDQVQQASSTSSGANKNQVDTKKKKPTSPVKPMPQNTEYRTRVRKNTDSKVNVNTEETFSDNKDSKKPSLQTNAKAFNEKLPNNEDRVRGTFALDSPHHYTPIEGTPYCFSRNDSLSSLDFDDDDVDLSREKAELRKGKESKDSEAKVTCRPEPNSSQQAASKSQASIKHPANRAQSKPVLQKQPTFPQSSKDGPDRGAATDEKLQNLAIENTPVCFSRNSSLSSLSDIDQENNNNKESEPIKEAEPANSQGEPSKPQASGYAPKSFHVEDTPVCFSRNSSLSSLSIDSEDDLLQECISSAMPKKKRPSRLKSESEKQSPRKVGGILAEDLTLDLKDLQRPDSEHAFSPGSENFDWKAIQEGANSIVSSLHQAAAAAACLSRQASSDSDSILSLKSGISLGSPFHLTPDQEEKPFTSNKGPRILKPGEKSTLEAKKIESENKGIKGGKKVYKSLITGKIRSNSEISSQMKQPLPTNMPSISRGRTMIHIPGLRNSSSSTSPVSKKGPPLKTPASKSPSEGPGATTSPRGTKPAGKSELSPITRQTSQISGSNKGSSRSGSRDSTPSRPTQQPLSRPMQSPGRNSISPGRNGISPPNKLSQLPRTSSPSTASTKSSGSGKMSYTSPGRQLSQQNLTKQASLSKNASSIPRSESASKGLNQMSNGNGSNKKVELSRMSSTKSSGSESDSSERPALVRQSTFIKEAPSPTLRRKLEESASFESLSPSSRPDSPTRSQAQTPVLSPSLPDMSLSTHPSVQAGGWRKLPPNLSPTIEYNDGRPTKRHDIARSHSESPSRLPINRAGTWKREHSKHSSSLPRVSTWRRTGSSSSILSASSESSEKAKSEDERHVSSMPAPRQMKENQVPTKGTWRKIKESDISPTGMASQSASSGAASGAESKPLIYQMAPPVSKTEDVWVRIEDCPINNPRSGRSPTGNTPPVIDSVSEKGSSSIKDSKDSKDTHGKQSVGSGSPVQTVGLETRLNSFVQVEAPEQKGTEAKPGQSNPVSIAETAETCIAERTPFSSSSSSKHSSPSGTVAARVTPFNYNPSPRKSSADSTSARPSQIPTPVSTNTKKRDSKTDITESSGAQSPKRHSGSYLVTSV

[2] = target: B2; test: SEC-MALS

## B1
[1]
  stoichiometry N: 2

## B2
SEC-MALS
  stoichiometry N: 2

## B3
full-length APC-GFP
  binding result: binds
[2]
  stoichiometry N: 1 KAP3 per KIF3A dimer
